Molecular target: ush_drome ush (UniProt Q9VPQ6)
Sequence (Q9VPQ6 whole entry): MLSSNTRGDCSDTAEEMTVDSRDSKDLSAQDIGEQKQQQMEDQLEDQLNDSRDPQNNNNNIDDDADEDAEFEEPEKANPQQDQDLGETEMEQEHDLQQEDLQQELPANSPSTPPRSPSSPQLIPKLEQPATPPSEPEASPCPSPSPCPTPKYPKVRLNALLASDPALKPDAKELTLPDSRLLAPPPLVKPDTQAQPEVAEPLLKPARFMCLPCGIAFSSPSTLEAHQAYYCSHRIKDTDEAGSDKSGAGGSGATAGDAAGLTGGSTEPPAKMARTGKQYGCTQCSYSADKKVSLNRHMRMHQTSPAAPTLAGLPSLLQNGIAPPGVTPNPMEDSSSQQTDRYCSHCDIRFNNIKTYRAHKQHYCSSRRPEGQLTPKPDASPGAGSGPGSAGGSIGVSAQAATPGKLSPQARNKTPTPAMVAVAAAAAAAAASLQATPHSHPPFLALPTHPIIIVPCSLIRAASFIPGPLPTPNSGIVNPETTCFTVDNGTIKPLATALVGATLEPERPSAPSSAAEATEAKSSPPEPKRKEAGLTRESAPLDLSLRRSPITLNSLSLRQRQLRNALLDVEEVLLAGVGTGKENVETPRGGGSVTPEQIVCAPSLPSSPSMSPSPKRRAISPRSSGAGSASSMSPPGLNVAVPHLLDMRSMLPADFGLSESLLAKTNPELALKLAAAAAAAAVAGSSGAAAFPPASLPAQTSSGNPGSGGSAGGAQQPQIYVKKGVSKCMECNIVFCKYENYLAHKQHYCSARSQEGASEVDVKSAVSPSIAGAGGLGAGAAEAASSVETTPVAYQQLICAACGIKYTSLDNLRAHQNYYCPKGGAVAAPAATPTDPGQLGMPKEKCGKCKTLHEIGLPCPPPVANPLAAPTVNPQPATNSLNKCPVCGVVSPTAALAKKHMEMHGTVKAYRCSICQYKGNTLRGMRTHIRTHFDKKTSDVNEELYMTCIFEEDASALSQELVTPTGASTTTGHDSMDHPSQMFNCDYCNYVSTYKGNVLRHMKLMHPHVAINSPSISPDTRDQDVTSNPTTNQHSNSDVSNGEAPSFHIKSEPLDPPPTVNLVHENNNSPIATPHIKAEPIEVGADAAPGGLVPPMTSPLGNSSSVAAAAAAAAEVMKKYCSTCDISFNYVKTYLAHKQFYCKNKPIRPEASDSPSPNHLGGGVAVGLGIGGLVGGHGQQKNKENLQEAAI

Chain of Erythroid transcription factor (Mus musculus), P17679 D218G (P17679 whole entry D218G): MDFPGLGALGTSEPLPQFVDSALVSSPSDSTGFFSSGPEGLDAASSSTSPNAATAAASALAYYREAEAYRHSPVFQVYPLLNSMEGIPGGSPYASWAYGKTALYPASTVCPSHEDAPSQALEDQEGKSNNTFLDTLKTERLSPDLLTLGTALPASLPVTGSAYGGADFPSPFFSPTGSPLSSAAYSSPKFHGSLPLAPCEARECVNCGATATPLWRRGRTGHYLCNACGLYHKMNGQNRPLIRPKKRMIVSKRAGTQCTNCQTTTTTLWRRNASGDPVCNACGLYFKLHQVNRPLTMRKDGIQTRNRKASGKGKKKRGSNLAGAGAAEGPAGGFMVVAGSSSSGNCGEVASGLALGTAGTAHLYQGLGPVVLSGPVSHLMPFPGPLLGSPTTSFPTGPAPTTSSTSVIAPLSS
Chain of Erythroid transcription factor (Mus musculus), P17679 V205M (P17679 whole entry V205M): as the sequence (P17679 whole entry D218G) above, with V205M, G218D counted along it
Chain of Erythroid transcription factor (Mus musculus), P17679 G208S (P17679 whole entry G208S): as the sequence (P17679 whole entry D218G) above, with G208S, G218D counted along it
Chain of Erythroid transcription factor (Mus musculus), P17679 R216Q (P17679 whole entry R216Q): as the sequence (P17679 whole entry D218G) above, with R216Q, G218D counted along it

Row | Substance | effect of a mutation on the interaction
1 | Erythroid transcription factor (Mus musculus), P17679 R216Q | with no effect
2 | Erythroid transcription factor (Mus musculus), P17679 V205M | disrupting interaction strength
3 | Erythroid transcription factor (Mus musculus), P17679 G208S | disrupting interaction strength
4 | Erythroid transcription factor (Mus musculus), P17679 D218G | with no effect

Source: IntAct's records for PubMed 15644435
